From patent US20250186597A1, “TARGETED IMMUNE ACTIVATION WITH IL-18 IMMUNOCYTOKINES” (BRIGHT PEAK THERAPEUTICS AG, priority 2023, published 2025) come the findings set out here.

Assay [1] addresses recombinant biotinylated human FcRn (human) (UniProt P55899). Briefly: AlphaLISA competition at pH 6; competitor: human IgG on acceptor beads. A general note: Bead proximity is the source of the signal in Alpha formats.
Assay [2] shares this target. Nature of the assay: AlphaLISA competition at pH 6; test molecule titrated (x axis) against human IgG-conjugated acceptor beads for biotinylated human FcRn on streptavidin donor beads.
Assay [3] addresses recombinant Human Fc gamma RIIIA/CD16a Protein (R&D systems, 4325-FC-050; CF) (human) (UniProt P08637). Briefly: ELISA; antibody coated, Fc gamma receptor titrated. For orientation: ELISA stands for enzyme-linked immunosorbent assay.
Assay [4] deals with recombinant Human Fc gamma RI/CD64 Protein (R&D systems, 1257-FC-050, CF) (human) (UniProt P12314). Briefly: ELISA; antibody coated, Fc gamma receptor titrated.
Sequence of recombinant Human Fc gamma RI/CD64 Protein (R&D systems, 1257-FC-050, CF) (human) (P12314 16-288 limits assumed): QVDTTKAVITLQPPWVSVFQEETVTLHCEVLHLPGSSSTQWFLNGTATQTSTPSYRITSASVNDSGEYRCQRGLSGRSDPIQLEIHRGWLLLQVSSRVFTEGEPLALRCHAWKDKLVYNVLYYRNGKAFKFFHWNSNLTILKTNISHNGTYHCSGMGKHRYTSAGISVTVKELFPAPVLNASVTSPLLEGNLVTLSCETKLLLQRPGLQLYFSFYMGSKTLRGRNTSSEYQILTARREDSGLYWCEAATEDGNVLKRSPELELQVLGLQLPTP
Assay [5] concerns the target recombinant Human Fc gamma RIIA/CD32a (H167) Protein (R&D systems, 9595-CD-050, CF) (human) (UniProt P12318). Nature of the assay: ELISA; antibody coated, Fc gamma receptor titrated.
Assay [6] deals with recombinant Human Fc gamma RIIB/CD32b Avi-tag Protein (R&D systems, AVI1875-050, CF) (human) (UniProt P31994). Nature of the assay: ELISA; antibody coated, Fc gamma receptor titrated.
Sequence of recombinant Human Fc gamma RIIB/CD32b Avi-tag Protein (R&D systems, AVI1875-050, CF) (human) (P31994 46-217 limits assumed): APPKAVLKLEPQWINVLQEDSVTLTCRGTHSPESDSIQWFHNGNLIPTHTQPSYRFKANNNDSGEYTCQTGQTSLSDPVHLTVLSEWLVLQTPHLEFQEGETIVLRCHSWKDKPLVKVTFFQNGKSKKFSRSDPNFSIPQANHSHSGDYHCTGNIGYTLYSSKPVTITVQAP
Assay [7] deals with human IL-18BP-His (human) (UniProt O95998). Briefly: AlphaLISA for free IL-18BP; test item titrated (x axis) and pre-incubated with human IL-18BP-His, unbound IL-18BP detected.
Sequence of human IL-18BP-His (human) (O95998 31-194): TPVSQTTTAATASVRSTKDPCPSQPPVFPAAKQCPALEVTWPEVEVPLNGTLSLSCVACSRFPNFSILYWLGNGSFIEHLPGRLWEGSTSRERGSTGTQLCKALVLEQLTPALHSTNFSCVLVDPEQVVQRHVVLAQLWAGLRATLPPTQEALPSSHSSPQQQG
Assay [8] shares this target. Nature of the assay: AlphaLISA detection of free IL-18BP after incubation with the IL-18 analyte.
The target is the same in assay [9]. Briefly: AlphaLISA detection of free IL-18BP.

Sequence of recombinant biotinylated human FcRn (human) (P55899 24-297 limits assumed, chain 1 of 2): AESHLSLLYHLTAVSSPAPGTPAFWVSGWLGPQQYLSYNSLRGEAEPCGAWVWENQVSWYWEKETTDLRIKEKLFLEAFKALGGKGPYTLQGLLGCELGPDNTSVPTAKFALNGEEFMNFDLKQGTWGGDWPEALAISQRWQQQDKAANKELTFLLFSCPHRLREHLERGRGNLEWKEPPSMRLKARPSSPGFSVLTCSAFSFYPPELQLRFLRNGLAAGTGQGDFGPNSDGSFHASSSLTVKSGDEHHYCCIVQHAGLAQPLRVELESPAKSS
Sequence of recombinant biotinylated human FcRn (human) (chain, as listed by the source limits assumed, chain 2 of 2): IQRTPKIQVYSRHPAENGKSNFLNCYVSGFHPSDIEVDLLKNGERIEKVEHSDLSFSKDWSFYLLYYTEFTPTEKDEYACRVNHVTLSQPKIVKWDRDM
Sequence of recombinant Human Fc gamma RIIIA/CD16a Protein (R&D systems, 4325-FC-050; CF) (human) (P08637 17-208 limits assumed): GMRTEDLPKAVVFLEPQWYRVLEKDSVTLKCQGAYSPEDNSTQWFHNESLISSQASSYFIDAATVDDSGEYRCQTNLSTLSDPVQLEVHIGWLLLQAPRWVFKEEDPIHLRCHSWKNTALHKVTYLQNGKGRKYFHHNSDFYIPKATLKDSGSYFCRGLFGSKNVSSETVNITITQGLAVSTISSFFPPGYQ
Sequence of recombinant Human Fc gamma RIIA/CD32a (H167) Protein (R&D systems, 9595-CD-050, CF) (human) (P12318 36-218 limits assumed): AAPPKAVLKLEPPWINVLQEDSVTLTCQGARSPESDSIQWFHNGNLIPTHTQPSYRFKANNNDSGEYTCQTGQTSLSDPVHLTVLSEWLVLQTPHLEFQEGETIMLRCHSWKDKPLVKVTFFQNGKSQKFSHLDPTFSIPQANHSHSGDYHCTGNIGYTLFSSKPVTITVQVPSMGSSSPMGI

Consider LZM-009 (antibody), for which the Kd (usually the concentration at which binding is half-saturated) was determined as 6 nM in assay [1]; 1710 nM in assay [3]; 0.315 nM in assay [4]; 1350 nM in [5]; 2630 nM in assay [6]. Besides, the IC50 (read off the curve) in [2] is 5 nM.
In turn, “native IL-18 wild-type (SEQ ID NO: 1) (from UniProt Q14116 37-193) (ligand)” gave an IC50 (read off the curve) in [7] of 0.4 nM. Further, the Kd in assay [8] is 0.411 nM; in [9] it was 0.67 nM.
